Assay: soluble on expression in E. coli; label from the status in PepcDB or PDB records

| Sequence | soluble on expression in E. coli |
| --- | --- |
| MAPSLDSISHSFANGVASAKQAVNGASTNLAVAGSHLPTTQVTQVDIVEKMLAAPTDSTLELDGYSLNLGDVVSAARKGRPVRVKDSDEIRSKIDKSVEFLRSQLSMSVYGVTTGFGGSADTRTEDAISLQKALLEHQLCGVLPSSFDSFRLGRGLENSLPLEVVRGAMTIRVNSLTRGHSAVRLVVLEALTNFLNHGITPIVPLRGTISASGDLSPLSYIAAAISGHPDSKVHVVHEGKEKILYAREAMALFNLEPVVLGPKEGLGLVNGTAVSASMATLALHDAHMLSLLSQSLTAMTVEAMVGHAGSFHPFLHDVTRPHPTQIEVAGNIRKLLEGSRFAVHHEEEVKVKDDEGILRQDRYPLRTSPQWLGPLVSDLIHAHAVLTIEAGQSTTDNPLIDVENKTSHHGGNFQAAAVANTMEKTRLGLAQIGKLNFTQLTEMLNAGMNRGLPSCLAAEDPSLSYHCKGLDIAAAAYTSELGHLANPVTTHVQPAEMANQAVNSLALISARRTTESNDVLSLLLATHLYCVLQAIDLRAIEFEFKKQFGPAIVSLIDQHFGSAMTGSNLRDELVEKVNKTLAKRLEQTNSYDLVPRWHDAFSFAAGTVVEVLSSTSLSLAAVNAWKVAAAESAISLTRQVRETFWSAASTSSPALSYLSPRTQILYAFVREELGVKARRGDVFLGKQEVTIGSNVSKIYEAIKSGRINNVLLKMLA | soluble |
| MAQEIERKFLVSGDFKSFAFAQSRIMQGYICSARGRTVRVRIRDDKGYLTIKGASNESGTSRYEWEKELPLSEAEELMKLCEPGMIDKTRYLVRSGNHIFEVDEFYGENEGLIVAEVELGTEDEAFVKPGFIGEEVTGDVRYYNSHLMKKPYKMW | not soluble |
| MAQGFKITYTDQACLLDIQDPQNKESQSFHYALVPRGVEAENIPADYTVIETPIRSVICMTSLQLSNFIKLEELDAVVGITSTRHLFNKKINDRLKDGSIHKIGIEGNFDNEVIMSVNPDLILISPFKRGGYDALKEVGIPLMPHLGYKEMTPLGQAEWIKFVGLLLGREDKANKQFAAIKKRYNELKELTGLEHHHHHH | not soluble |
| MAQLYFYYSAMNAGKSTSLLQSSYNYRERGMNTLVMTASIDDRYGKGKVASRIGIESDAQVFSSHDNLIEMITAAHQENHLSCVLVDECQFLSKEQVKQLTYIVDKIDIPVLCYGLRTDFQGELFSGSHYLLAWADKLVELKTICHCGRKANMVVRLDGEGKVMREGEQVAIGGNESYESVCRKHFREFIWD | soluble |
| MAQPSTTYKFELNLTDLDRGVYESVKQTIARHPSETEERMTVRLLAYAFWYNEQLAFGRGLSDVDEPALWEKSLDDRVLHWIEVGQPDADRLTWCSRRTERTSLLAYGSLRVWEGKVIPAIKNLKNVNIAAVPQDVLEVLAKDMPRVIKWDVMISEGTVFVTDDRGQHEVQLQWLTGERG | soluble |
| MAQQETPQDKRRRHARVDNVIYANFGAKTTVRTEPEAPEIVESRNFSPVALRIRDLATQEADAGRLKRGRDYARSGHVLNVKFGNSLITADVAGSQNLPFQVSIAFPYLSTDGLSQITQYIAASPDGLNAARHGQLSEDILDLLLGTQVTFRCDCPDHVVCCKHSVAVVTVASEKVEADPLLAFRLRGLDLAQLEQAVTMQARAASTQDLKERFWQGRDLPSLPEPKIAPALDDSDASLLHKAMRLVSYTNIDELRAVSDIEDIYYHLTHEKG | not soluble |
| MAQSVPPGDIQTQPGTKIVFNAPYDDKHTYHIKVINSSARRIGYGIKTTNMKRLGVDPPCGVLDPKEAVLLAVSCDAFAFGQEDTNNDRITVEWTNTPDGAAKQFRREWFQGDGMARRKNLPIEYNP | not soluble |
| MAQTQSPLQWLATTLIRGYQIFISPILGPRCRFNPTCSHYAIEAIKVHGTAKGCWFALKRILKCHPLHPGGSDPVPPKNDRCNKLEHHHHHH | not soluble |
| MAQVAIFKEIFDQVRKDLNCELFYSELKRHNVSHYIYYLATDNIHIVLENDNTVLIKGLKKVVNVKFSRNTHLIETSYDRLKSREITFQQYRENLAKAGVFRWITNIHEHKRYYYTFDNSLLFTESIQNTTQIFPR | not soluble |
| MAQYKGAASEAGRAMHLMKKREKQREQMEQMKQRIAEENIMKSNIDKKFSAHYDAVEAELKSSTVGLVTLNDMKAKQEALVKEREKQLAKKEQSKELQMKLEKLREKERKKEAKRKISSLSFTLEEEEEGGEEEEEAAMYEEEMEREEITTKKRKLGKNPDVDTSFLPDRDREEEENRLREELRQEWEAKQEKIKSEEIEITFSYWDGSGHRRTVKMRKGNTMQQFLQKALEILRKDFSELRSAGVEQLMYIKEDLIIPHHHSFYDFIVTKARGKSGPLFNFDVHDDVRLLSDATVEKDESHAGKVVLRSWYEKNKHIFPASRWEPYDPEKKWDKYTIR | soluble |
| MARAIAIDAPLSAGIRRTKKSPIKRASVGGVKKRFSTGTAGPSRRPTAQPRRQSGGIRTVDRSIPANENREVRINLSNLAHTVHSGDLRQLFAEFKIRNVSVNFNEHGKPVGTGDVTLPKRHADRLIQKFAGVSLDGKEIKFAIIDSANIANRVKFPEAPRRAPSNGRPAQRAPKRQNVKSGKPTGGAGAQKKLKAKKPKREAQPKKTLEELDAELDVYMSKA | not soluble |
| MARDEVRRILPADIKREVLIKDENAETNPDWGFPPEKRPIEMHIQFGVINLDKPPGPTSHEVVAWIKKILNLEKAGHGGTLDPKVSGVLPVALEKATRVVQALLPAGKEYVALMHLHGDVPEDKIIQVMKEFEGEIIQRPPLRSAVKRRLRTRKVYYIEVLEIEGRDVLFRVGVEAGTYIRSLIHHIGLALGVGAHMSELRRTRSGPFKEDETLITLHDLVDYYYFWKEDGIEEYFRKAIQPMEKAVEHLPKVWIKDSAVAAVTHGADLAVPGIAKLHAGIKRGDLVAIMTLKDELVALGKAMMTSQEMLEKTKGIAVDVEKVFMPRDWYPKLWEKRDRSHHHHHH | soluble |
| MARDGGVSCLRRSEMMSVGGIGGIESAPLDLDEVHVLAVDDSLVDRIVIERLLRITSCKVTAVDSGWRALEFLGLDNEKASAEFDRLKVDLIITDYCMPGMTGYELLKKIKESSNFREVPVVIMSSENVLTRIDRCLEEGAQDFLLKPVKLADVKRLRSHLTKDVKLSNGNKRKLPEDSSSVNSSLPPPSPPLTISPESSPPLTVSTESSDSSPPLSPVEIFSTSPLSSPIDDEDDDVLTSSSEESPIRRQKMRSPGLD | not soluble |
| MAREAKKDPNELTVEQKLKTLFQLQTMLSKIDEIKTLRGELPLEVQDLEDEIAGLSTRIDKIKAEVDELKSAIAGKRVEIETAKASVEKYKSQQDNVRNNREYDFLTKEIEFQSLEIELCEKRIKEFSADREEKEAEVVKNEQILSERQKDLEQKKGELDEIISETKQEEEKLRDKAKDLETKIEPRLLQSFKRIRKNSRNGLGVVYVQRDACGGCFNKIPPQRQLDIRSRKKVIVCEYCGRIMIDPELAGVQIEHKVEEAPATTTKRAIRRKTAE | not soluble |
| MAREVKLTKAGYERLMQQLERERERLQEATKILQELMESSDDYDDSGLEAAKQEKARIEARIDSLEDILSRAVILEEGSGEVIGLGSVVELEDPLSGERLSVQVVSPAEANVLDTPMKISDASPMGKALLGHRVGDVLSLDTPKGRREFRVVAIHG | soluble |
| MARGIKLVIFDVDGVLVEVKSSWGYIHRRLGVEEEAMKVKEMFERGSIDYIEWMRLDTELWIRASGGRLHRSRLMEIVGEIPVRKEAFEAVRMLRRMGLRIGLVSSGIDLLVRRVAAEIGADAWASNRLLFDKNGFLQPGGSPLVGVDKRGAVTRMAYELGASLEEVAYVGDSRWDASAMSIVGLPIAYNDGGELDGVARARVDSLLDVPRVVAEWGRARAR | not soluble |
| MARLAIGGGSLCPAYGALRMQPVSTFPIYIVSIARARARLEKMLEGASGLGLDLRPVEGVDGKTISPDDWRDFDRRGFELRNGRHALPGEYGCYASHIKALETFLATDAPVAVIVEDDVAFTPDFSERVKAMVAAMPDDAIVKLTNHRRKGFKARKTSALGDTFGRCIYGPQGSSACYIISRRAAERFLKAARRMTLPFDRALECGWGYGTEVYITDKDFLPFGDPDTLVGTRDEYRGSKFARLKRVPAYLSSFYDNIARYIYAYRLEHHHHHH | soluble |
| MARLSDLIEAFIKQLIDDTDGTIEIQRNELASQFNCVPSQINYVIDTRFTTERGYYVESRRGGGGYIKITRVSIGHEGKNYLMHIINSMGDSISQQSAHVFINNFVDHNVVTEKEAMLLKAATSDKALAAVPVESRGQIRASILKNMLVCLLV | soluble |
| MARPIGIYEKATPKQFTWRERLQFAKDLGFDFVEMSVDESDARLARLEWTKEERLDLVKAIYETGIRIPTICFSGHRRYPLGSNDPAIEAKSLKLMKQCIELAQDLGVRTIQLAGYDVYYEKKSPETRARFIKNLRQSCDWAEEAQVMLSIEIMDDPFINSIEKYLAVEKEIDSPYLFVYPDAGNVSAWHNDLWSEFYNGHKSIAALHLKDTYAVTETSKGQFRDVPFGQGCVDWQELFAVLKKTNYNGPFLIEMWSENCDTVEETKAAIKEAQDFLYPLIEKAGLT | not soluble |
| MARQTKPLSVKEIESAKPKEADYVLYDGDGLELLIKSSGSKIWQFRYIRPVTKTRAKKSIGPYPSVTLADARNYRAESRSLLAKQIDPQEHQQEQLRSSLEAKTNTFQLVAERWWNVKKASVTEDYAEDIWRSLERDVFPAIGDVSVTDIKAHTLVQAVQPVQARGALETVRRLCQRINEVMIYAQNTGLIDAVPSVNIGKAFEKPQKKNMPSIRPDQLSQLMQTMRTASISLSTRCLFMWQLLTITRPAEAAEARWEEVDIEAQEWKIPAARMKMNRDHTVPLSDEAIAVLEMMKPLSGNREFIFPSRIKPNQPMNSQTVNASLKRAGFGGVLVSHGLRSIASTALNEQGFPPDAIEAALAHVDKNEVRRAYNRSDYLEQRRPMMQWWANFVMAADRGSMIEGGIKGMKLVG | not soluble |
| MARRGNKAIRATVSMKIALSEPLLVLVNNYVKALRFTLFWLKENVPNPEEKGVLSKVHEALYEKLREEYNLPSKVAEDCYREALATYKGWYNNPRRGRFPRVYRPTVWLTPRASYNVDFEAMTVRIVSVGELSILGYPRNLKEYMGWKMKEARLVIRDDKAFLKVVFEKEEQKVEPKESIAVDINMAEVVVGKDDKNYVRIPTRLEEVHHWKSLAERLLKKYPRRWRENKRILYRVRSFHLKARRIMEDFARKVGKWVVDVAKRMGVNVIKLESLKNLIKSVEKLSKEFRDKLYLMQYRRLQYWISWQAKKRGMTVEFVNPSYSSVSCPKCGKRMVEVSHRWFKCSCGYENDRDVIAIMNLNGRGSLTLSTAPQMRDVNPNRLEHHHHHH | not soluble |
| MARRNSSIKPVFCFFAEFCMVSTSLWMDTEILPEASALKGDVHCDVAVVGSGIAGLSTAYELSKRDQSVIVIDRKGIASGMTARTSAHLAPLCDDLMSEFRKLRGPEIAKLFYESQAAAVDRIEEIQASETIACDFRRLDGYLFQGHGMPADVLDEELEAVREVGAPVHRLVGVPLKGCENRHVLRYPRQATFHPLKYLAGVAAVCQTHGVRFFANSPVEEVAQGDGDVTLRTAQGQITAGNAVIATNASITDRYQLHSKVAPYRTYVLAFAIARGELPDALYWDTEDPYHYVRLQLGSDDHDVVLIGGEDHKSGEANDAEKRFAKLESWARELIPGLGRVTHRWSGQVLDTIDYAGFIGREPGSERIYLAMGDSGQGLTHGVMGAMLNTSLILGEHNPWSAVYAPGRTPLAAARNFLRENLTILQNLAEYVAPGEIASLEKIEPSEGAILRRGFEKIAAYRDKAGELHLHSASCTHIGCHLHWNSFETCWDCPCHGSIFAPNGQPINAPAVSALRPVKVLEHHHHHH | not soluble |
